Values of other authors in publication PMC4856733.

Biological target: vinculin tail tail (Homo sapiens) (UniProt P18206)

Kd: < 1 nM
Substance: vinculin head head (from UniProt P18206)
